Measurements taken from patent US20240294646A1.
pKd: −log10 of the molar value. Values belong to the substance of their own block, whether it stands above or below them.

What was measured:
[1] = target: FcγRIIaR (UniProt P12318); experiment: SPR imaging (IBIS MX96), antibody spotted on chip, soluble receptor as analyte, kinetic fit, 25 C, pH 7.4
Target sequence in this assay (P12318 34-217 H167R limits assumed): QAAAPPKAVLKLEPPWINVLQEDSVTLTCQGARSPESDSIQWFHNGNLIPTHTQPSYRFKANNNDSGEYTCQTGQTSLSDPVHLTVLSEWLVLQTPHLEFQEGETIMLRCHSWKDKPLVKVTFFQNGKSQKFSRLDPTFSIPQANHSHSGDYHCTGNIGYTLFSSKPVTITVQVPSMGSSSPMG

[2] = target: FcγRIIb (UniProt P31994); experiment: as above
Target sequence in this assay (P31994 43-217): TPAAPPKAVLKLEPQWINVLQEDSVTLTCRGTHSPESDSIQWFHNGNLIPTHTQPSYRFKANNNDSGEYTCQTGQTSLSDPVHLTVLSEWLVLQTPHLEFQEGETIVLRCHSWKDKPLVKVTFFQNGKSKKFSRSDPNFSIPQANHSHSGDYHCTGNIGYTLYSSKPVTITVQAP

[3] = target: FcγRIIaR (UniProt P12318); experiment: SPR; antibody captured on immobilised HER2, soluble FcγR as analyte; fold over wild-type
Target sequence in this assay (P12318 34-217): as the sequence (P12318 34-217 H167R limits assumed) above, with R134H counted along it

[4] = target: FcγRIIb (UniProt P31994); experiment: as above
Target sequence in this assay (P31994 43-217): as the sequence (P31994 43-217) above

[5] = target: FcγRIIb (UniProt P31994); experiment: SPR; ratio of IIb-Fold to IIaR-Fold (FcγRIIb against FcγRIIaR)
Target sequence in this assay (P31994 43-217): as above

[6] = target: C1q (human) (UniProt P02745); experiment: ELISA; antibody coated on the plate, human C1q added; signal as % of wild-type
Chain of C1q (human) (P02745 23-245 limits assumed, chain 1 of 3): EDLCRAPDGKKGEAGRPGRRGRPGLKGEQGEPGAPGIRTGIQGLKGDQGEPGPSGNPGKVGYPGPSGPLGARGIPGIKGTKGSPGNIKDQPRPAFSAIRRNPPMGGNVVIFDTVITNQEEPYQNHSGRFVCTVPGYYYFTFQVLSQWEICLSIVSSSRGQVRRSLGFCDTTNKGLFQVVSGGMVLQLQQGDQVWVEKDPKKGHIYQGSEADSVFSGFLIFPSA
Chain of C1q (human) (P02746 28-253 limits assumed, chain 2 of 3, further chain): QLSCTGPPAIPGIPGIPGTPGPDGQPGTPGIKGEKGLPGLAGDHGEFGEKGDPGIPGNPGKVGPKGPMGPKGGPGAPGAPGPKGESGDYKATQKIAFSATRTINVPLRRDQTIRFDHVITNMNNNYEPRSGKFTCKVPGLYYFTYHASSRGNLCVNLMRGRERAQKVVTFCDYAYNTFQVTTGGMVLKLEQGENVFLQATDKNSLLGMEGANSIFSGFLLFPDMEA
Chain of C1q (human) (P02747 29-245 limits assumed, chain 3 of 3, further chain): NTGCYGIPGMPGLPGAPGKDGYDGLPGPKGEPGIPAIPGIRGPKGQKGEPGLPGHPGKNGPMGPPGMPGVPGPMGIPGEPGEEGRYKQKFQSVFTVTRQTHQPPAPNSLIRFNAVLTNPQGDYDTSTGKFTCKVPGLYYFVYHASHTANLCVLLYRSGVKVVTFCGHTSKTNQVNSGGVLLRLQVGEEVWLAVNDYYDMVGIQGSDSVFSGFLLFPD

[7] = target: FcγRIIb soluble extracellular domain with C-terminal 10xHis tag (UniProt P31994); experiment: SPR; IIb-Fold/IIaR-Fold (FcγRIIb against FcγRIIaR)
Chain of FcγRIIb soluble extracellular domain with C-terminal 10xHis tag (P31994 other isoform, or with tags, fused parts or gaps limits assumed): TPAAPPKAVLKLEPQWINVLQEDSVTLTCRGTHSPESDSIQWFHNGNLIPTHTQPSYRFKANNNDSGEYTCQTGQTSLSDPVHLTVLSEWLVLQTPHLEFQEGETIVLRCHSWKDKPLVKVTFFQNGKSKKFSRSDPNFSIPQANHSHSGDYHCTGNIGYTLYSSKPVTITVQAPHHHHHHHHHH

[8] = target: FcγRIIb soluble extracellular domain with C-terminal 10xHis tag (UniProt P31994); experiment: SPR, OAA captured on HER2, receptor in solution; KD(control v27294)/KD(variant)
[9] = target: FcγRIIb soluble extracellular domain with C-terminal 10xHis tag (UniProt P31994); experiment: SPR, OAA captured on HER2, receptor in solution; KD(WT v16463)/KD(variant)
[10] = target: FcγRIIaR soluble extracellular domain with C-terminal 10xHis tag (UniProt P12318); experiment: as above
Chain of FcγRIIaR soluble extracellular domain with C-terminal 10xHis tag (P12318 other isoform, or with tags, fused parts or gaps): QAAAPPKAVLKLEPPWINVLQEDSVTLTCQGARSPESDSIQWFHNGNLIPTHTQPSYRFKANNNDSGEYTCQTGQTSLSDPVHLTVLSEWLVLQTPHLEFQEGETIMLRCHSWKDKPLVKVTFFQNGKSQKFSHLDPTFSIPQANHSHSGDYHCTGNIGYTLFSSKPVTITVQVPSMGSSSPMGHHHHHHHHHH

[11] = target: FcγRIIb soluble extracellular domain with C-terminal 10xHis tag (UniProt P31994); experiment: SPR; IIb selectivity of variant / that of control v27294
[12] = target: Soluble FcγRIIaR extracellular domain with C-terminal 10xHis tag (UniProt P12318); experiment: SPR, antibody captured on immobilised HER2, soluble receptor as analyte
Chain of Soluble FcγRIIaR extracellular domain with C-terminal 10xHis tag (P12318 other isoform, or with tags, fused parts or gaps): as above

[13] = target: Soluble FcγRIIb extracellular domain with C-terminal 10xHis tag (UniProt P31994); experiment: as above
Chain of Soluble FcγRIIb extracellular domain with C-terminal 10xHis tag (P31994 other isoform, or with tags, fused parts or gaps): as the sequence (P31994 other isoform, or with tags, fused parts or gaps limits assumed) above

[14] = target: Soluble FcγRIIb extracellular domain with C-terminal 10×His tag (UniProt P31994); experiment: SPR, antibody captured on HER2 chip, receptor as analyte
Chain of Soluble FcγRIIb extracellular domain with C-terminal 10×His tag (P31994 other isoform, or with tags, fused parts or gaps): as the sequence (P31994 other isoform, or with tags, fused parts or gaps limits assumed) above

[15] = target: C1q (human) (UniProt P02745); experiment: cell-based or functional assay
[16] = target: FcγRIIb (UniProt P31994); experiment: SPR (Protocol 1); FcγRIIb ratio over FcγRIIaR ratio
Target sequence in this assay (P31994 43-217 limits assumed): as the sequence (P31994 43-217) above

[17] = target: FcγRIIaR (UniProt P12318); experiment: SPR (Protocol 1), one-armed antibody captured on HER2, receptor as analyte; ratio to wild-type
Target sequence in this assay (P12318 34-217): as the sequence (P12318 34-217 H167R limits assumed) above, with R134H counted along it

[18] = target: FcγRIIb (UniProt P31994); experiment: as above
Target sequence in this assay (P31994 43-217 limits assumed): as the sequence (P31994 43-217) above

[19] = target: Soluble FcγRIIaR extracellular domain with C-terminal 10xHis tag (UniProt P12318); experiment: SPR (Biacore 4000); variant captured on HER2, receptor in solution
[20] = target: Soluble FcγRIIb extracellular domain with C-terminal 10xHis tag (UniProt P31994); experiment: as above
[21] = target: FcγRIIaR (UniProt P12318); experiment: SPR (Protocol 1), one-armed antibody captured on HER2, receptor as analyte; fold over wild-type
Target sequence in this assay (P12318 34-217): as the sequence (P12318 34-217 H167R limits assumed) above, with R134H counted along it

[22] = target: FcγRIIb (UniProt P31994); experiment: as above
Target sequence in this assay (P31994 43-217 limits assumed): as the sequence (P31994 43-217) above

[23] = target: FcγRIIb (UniProt P31994); experiment: SPR (Protocol 1); IIb-Fold over IIaR-Fold
Target sequence in this assay (P31994 43-217 limits assumed): as the sequence (P31994 43-217) above

Substance: Variant 21653 (WT), anti-CD19 (4G7) full-size antibody
pKd [1]: 6.14 | pKd [2]: 5.66

Substance: Variant 22127 (trastuzumab FSA; A: L234D_G236N_S267A; B: G236D_S239D_V266L_S267A_H268D) (antibody)
IIaR-fold (fold change in affinity over wild-type) [3]: 4 fold | IIb-fold (fold change in affinity over wild-type) [4]: 49 fold | IIb Selectivity (IIb-Fold/IIaR-Fold) [5]: 12 fold | C1q Binding (% WT) [6]: 215 % WT

Substance: Variant 22128 (trastuzumab FSA; A: L234F_G236N_H268Q_K274Q_A327G_A330K_P331S; B: L234F_G236D_S239D_V266L_S267A_H268D_K274Q_A327G_A330S_P331S) (antibody)
IIaR-fold (fold change in affinity over wild-type) [3]: 4 fold | IIb-fold (fold change in affinity over wild-type) [4]: 33 fold | IIb Selectivity (IIb-Fold/IIaR-Fold) [5]: 9 fold | C1q Binding (% WT) [6]: 3 % WT

Substance: Variant 26663 (A_L234F_G236N_S267A_H268Q_A327G_A330K_P331S / B_G236D_S239D_V266L_S267A_H268D) (antibody)
IIb Selectivity [7]: 23.6 fold | IIb-Fold wrt Control [8]: 0.7 fold | IIb Selectivity Improvement wrt Control [11]: 1.8 fold | IIb-Fold [9]: 62.1 fold | IIaR-fold [10]: 2.6 fold

Substance: Variant 26940 (A_L234F_G236N_H268Q_A327G_A330K_P331S / B_G236D_G237D_S239D_V266L_S267A_H268D) (antibody)
IIb Selectivity [7]: 23.3 fold | IIb-Fold wrt Control [8]: 3.3 fold | IIb Selectivity Improvement wrt Control [11]: 1.7 fold | IIb-Fold [9]: 304 fold | IIaR-fold [10]: 13.1 fold

Substance: Variant 27294, Launching Module 2 (A_L234F_G236N_H268Q_A327G_A330K_P331S / B_G236D_S239D_V266L_S267A_H268D), one-armed trastuzumab antibody
pKd [12]: 7.36 | pKd [13]: 7.80

Substance: Variant 27362, strat3_control (A_G236N_G237A / B_G236D_G237F_S239D_S267V_H268D), one-armed trastuzumab antibody
pKd [14]: 6.82

Substance: Variant 31256 (trastuzumab FSA; A: L234F_G236N_H268Q_A327G_P329I_A330K_P331S; B: G236D_G237D_S239D_V266L_S267A_H268D) (antibody)
IIaR-fold (fold change in affinity over wild-type) [3]: 4 fold | IIb-fold (fold change in affinity over wild-type) [4]: 121 fold | IIb Selectivity (IIb-Fold/IIaR-Fold) [5]: 34 fold | C1q Binding (% WT) [6]: 3 % WT

Substance: anti-CD40 full-size antibody (Chi Lob 7/4 Fab) with wild-type CH2, v21653
CDC assay on Ramos cells: Lysis (%) Mean, at highest test antibody concentration [15]: 77.8% | CDC assay on Ramos cells: Potency (ng/mL) Mean, antibody concentration above which >20% cell lysis was achieved [15]: 67.7 ng/mL

Substance: one-armed trastuzumab antibody (Scaffold 2), chain A L235D, chain B H268Q_K274Q
Selectivity IIb/IIaR [16]: 2.2 | Ka,mut/Ka,WT [17]: 1.03 | Ka,mut/Ka,WT [18]: 2.24

Substance: v12 (IIb-specific comparator, symmetrical E233D_G237D_P238D_H268D_P271G_A330R), anti-CD40 (Chi Lob 7/4) full-size antibody
pKd [1]: 6.41

Substance: v26130 (A_N236A_strat1), one-armed trastuzumab antibody
pKd [19]: 7.92 | pKd [20]: 8.40

Substance: v26131 (A_N236V_strat1), one-armed trastuzumab antibody
pKd [19]: 8.10 | pKd [20]: 8.52

Substance: variant 16490, one-armed trastuzumab antibody (Scaffold 2), G236D in both chains
IIaR-Fold (fold affinity over wild-type) [21]: 0.81 fold | IIb-Fold (fold affinity over wild-type) [22]: 2.22 fold | Selectivity IIb/IIaR [16]: 2.7 | IIb/IIaR Selectivity [23]: 2.75 | Ka,mut/Ka,WT [17]: 0.81 | Ka,mut/Ka,WT [18]: 2.22

Substance: variant 16533, one-armed trastuzumab antibody (Scaffold 2), S267I in both chains
IIaR-Fold (fold affinity over wild-type) [21]: 0.98 fold | IIb-Fold (fold affinity over wild-type) [22]: 2.69 fold | Selectivity IIb/IIaR [16]: 2.8 | IIb/IIaR Selectivity [23]: 2.75 | Ka,mut/Ka,WT [17]: 0.98 | Ka,mut/Ka,WT [18]: 2.69

Substance: variant 16572, one-armed trastuzumab antibody (Scaffold 2), L234F in both chains
IIaR-Fold (fold affinity over wild-type) [21]: 0.21 fold | IIb-Fold (fold affinity over wild-type) [22]: 0.52 fold | Selectivity IIb/IIaR [16]: 2.5 | IIb/IIaR Selectivity [23]: 2.48 | Ka,mut/Ka,WT [17]: 0.21 | Ka,mut/Ka,WT [18]: 0.52

Substance: variant 16578, one-armed trastuzumab antibody (Scaffold 2), A327G_A330S_P331S_L234F_H268Q_K274Q in both chains
IIaR-Fold (fold affinity over wild-type) [21]: 0.47 fold | IIb-Fold (fold affinity over wild-type) [22]: 2.03 fold | Selectivity IIb/IIaR [16]: 4.4 | IIb/IIaR Selectivity [23]: 4.35 | Ka,mut/Ka,WT [17]: 0.47 | Ka,mut/Ka,WT [18]: 2.03

Now from value to substance:

pKd [1]: 6.25 | pKd [2]: 5.68
Substance: Variant 21653 (WT), anti-CD40 (Chi Lob 7/4) full-size antibody

pKd [1]: 6.20 | pKd [2]: 5.70
Substance: Variant 21653 (WT), anti-HER2 (trastuzumab) full-size antibody

IIb Selectivity [7]: 26.3 fold | IIb-Fold wrt Control [8]: 0.7 fold | IIb-Fold [9]: 65.2 fold | IIaR-fold [10]: 2.5 fold
Substance: Variant 26593 (A_L234F_L235D_G236N_H268Q_A327G_A330K_P331S / B_G236D_S239D_V266L_S267A_H268D) (antibody)

IIb Selectivity [7]: 22.6 fold | IIb-Fold wrt Control [8]: 0.6 fold | IIb Selectivity Improvement wrt Control [11]: 1.7 fold | IIb-Fold [9]: 53.3 fold | IIaR-fold [10]: 2.4 fold
Substance: Variant 26847 (A_L234F_G236N_H268Q_A327G_A330T_P331S / B_G236D_S239D_V266L_S267A_H268D) (antibody)

IIb Selectivity [7]: 20.9 fold | IIb-Fold wrt Control [8]: 3.2 fold | IIb Selectivity Improvement wrt Control [11]: 1.6 fold | IIb-Fold [9]: 296 fold | IIaR-fold [10]: 14.2 fold
Substance: Variant 26931 (A_L234F_G236N_H268Q_A327G_A330K_P331S / B_G236D_G237L_S239D_V266L_S267A_H268D) (antibody)

IIb Selectivity [7]: 19.7 fold | IIb-Fold wrt Control [8]: 5.8 fold | IIb Selectivity Improvement wrt Control [11]: 1.5 fold | IIb-Fold [9]: 542 fold | IIaR-fold [10]: 27.5 fold
Substance: Variant 26939 (A_L234F_G236N_H268Q_A327G_A330K_P331S / B_G236D_G237N_S239D_V266L_S267A_H268D) (antibody)

IIaR-fold (fold change in affinity over wild-type) [3]: 7 fold | IIb-fold (fold change in affinity over wild-type) [4]: 187 fold | IIb Selectivity (IIb-Fold/IIaR-Fold) [5]: 26 fold | C1q Binding (% WT) [6]: 2 % WT
Substance: Variant 31190 (trastuzumab FSA; A: L234F_L235D_G236N_H268Q_A327G_A330K_P331S; B: G236D_G237L_S239D_V266L_S267A_H268D) (antibody)

CDC assay on Ramos cells: Lysis (%) Mean, at highest test antibody concentration [15]: 7.28%
Substance: anti-CD40 full-size antibody (Chi Lob 7/4 Fab) with control Fc v12 (symmetrical E233D_G237D_P238D_H268D_P271G_A330R)

pKd [19]: 7.74 | pKd [20]: 8.19
Substance: v26128 (A_L235P_strat1), one-armed trastuzumab antibody

pKd [19]: 8.05 | pKd [20]: 8.34
Substance: v26129 (A_N236G_strat1), one-armed trastuzumab antibody

pKd [19]: 8.14 | pKd [20]: 8.57
Substance: v26132 (A_N236L_strat1), one-armed trastuzumab antibody

IIaR-Fold (fold affinity over wild-type) [21]: 0.17 fold | IIb-Fold (fold affinity over wild-type) [22]: 0.47 fold | Selectivity IIb/IIaR [16]: 2.7 | IIb/IIaR Selectivity [23]: 2.7 | Ka,mut/Ka,WT [17]: 0.17 | Ka,mut/Ka,WT [18]: 0.47
Substance: variant 16585, one-armed trastuzumab antibody (Scaffold 2), L234D in both chains
